Settings in all cases: both partners purified
Assay [1] deals with T1, MltD (P. aeruginosa PAO1, UniProt Q9I2T2 1-534).
T1 sequence (looked up): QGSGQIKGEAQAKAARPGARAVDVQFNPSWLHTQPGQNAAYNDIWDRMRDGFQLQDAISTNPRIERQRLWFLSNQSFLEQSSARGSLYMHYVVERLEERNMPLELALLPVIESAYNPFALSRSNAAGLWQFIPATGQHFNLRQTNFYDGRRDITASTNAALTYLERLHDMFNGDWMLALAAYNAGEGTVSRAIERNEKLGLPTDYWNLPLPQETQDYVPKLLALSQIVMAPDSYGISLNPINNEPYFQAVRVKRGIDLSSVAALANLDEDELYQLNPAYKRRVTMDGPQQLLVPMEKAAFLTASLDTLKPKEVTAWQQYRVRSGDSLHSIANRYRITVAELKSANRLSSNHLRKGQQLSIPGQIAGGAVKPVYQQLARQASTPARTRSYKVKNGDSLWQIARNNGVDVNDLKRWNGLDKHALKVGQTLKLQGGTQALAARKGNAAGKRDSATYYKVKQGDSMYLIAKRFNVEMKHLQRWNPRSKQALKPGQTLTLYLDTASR
The experiment in a line: SPR; RlpA-Δ81 or RlpA-SPOR amine-coupled to its own CM4 chip, partner as analyte; 25 °C; 10 mM HEPES pH 7.4, 150 mM NaCl, 3 mM EDTA, 0.005% P20; alternate fitting model for PBP1a on RlpA-SPOR.

In assay [2] the target is T2, PBP1a (P. aeruginosa PAO1, UniProt Q07806 27-822). The assay is described as above.
T2 sequence (Q07806 27-822): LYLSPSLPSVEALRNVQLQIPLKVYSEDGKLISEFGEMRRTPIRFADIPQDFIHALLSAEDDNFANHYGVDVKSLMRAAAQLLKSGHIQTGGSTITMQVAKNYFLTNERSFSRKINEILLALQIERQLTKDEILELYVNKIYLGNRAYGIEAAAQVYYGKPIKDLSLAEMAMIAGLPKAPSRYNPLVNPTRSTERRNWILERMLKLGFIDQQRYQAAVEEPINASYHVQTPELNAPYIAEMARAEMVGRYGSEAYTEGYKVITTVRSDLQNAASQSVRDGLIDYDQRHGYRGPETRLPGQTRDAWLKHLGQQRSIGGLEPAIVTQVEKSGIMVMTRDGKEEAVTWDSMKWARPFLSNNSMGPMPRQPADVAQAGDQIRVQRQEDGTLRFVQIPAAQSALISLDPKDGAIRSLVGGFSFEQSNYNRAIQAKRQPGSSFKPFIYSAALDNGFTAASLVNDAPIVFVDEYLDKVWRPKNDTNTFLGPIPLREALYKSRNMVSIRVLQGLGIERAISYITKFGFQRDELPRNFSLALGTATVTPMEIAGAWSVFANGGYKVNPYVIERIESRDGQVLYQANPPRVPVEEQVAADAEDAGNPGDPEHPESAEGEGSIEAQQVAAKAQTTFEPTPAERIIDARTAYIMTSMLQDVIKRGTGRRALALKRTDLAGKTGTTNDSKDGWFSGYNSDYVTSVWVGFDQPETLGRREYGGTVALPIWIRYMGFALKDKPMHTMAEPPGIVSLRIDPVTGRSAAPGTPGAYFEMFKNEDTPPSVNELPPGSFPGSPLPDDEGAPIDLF
For assay [3], the target named is T3, TypA (P. aeruginosa PAO1, UniProt Q9HU67 1-605).
T3 sequence (looked up): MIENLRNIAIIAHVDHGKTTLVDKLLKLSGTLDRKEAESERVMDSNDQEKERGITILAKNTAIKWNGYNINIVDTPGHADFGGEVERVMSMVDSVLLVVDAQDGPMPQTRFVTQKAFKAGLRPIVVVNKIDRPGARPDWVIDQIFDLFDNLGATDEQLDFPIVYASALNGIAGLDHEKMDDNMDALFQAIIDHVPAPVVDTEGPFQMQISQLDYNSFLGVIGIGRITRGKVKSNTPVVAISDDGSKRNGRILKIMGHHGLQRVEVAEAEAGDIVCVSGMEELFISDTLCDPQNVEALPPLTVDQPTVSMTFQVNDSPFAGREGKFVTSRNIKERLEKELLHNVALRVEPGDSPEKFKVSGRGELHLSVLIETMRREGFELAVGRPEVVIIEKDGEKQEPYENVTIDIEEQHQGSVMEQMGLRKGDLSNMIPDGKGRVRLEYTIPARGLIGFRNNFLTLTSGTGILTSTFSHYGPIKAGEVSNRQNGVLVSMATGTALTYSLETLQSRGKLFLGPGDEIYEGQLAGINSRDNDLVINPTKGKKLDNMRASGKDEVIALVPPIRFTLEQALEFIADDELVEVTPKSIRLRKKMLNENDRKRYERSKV
The description is as above.

For assay [4], the target named is T4, MltF2 (P. aeruginosa PAO1, UniProt Q9HZY1 1-476).
T4 sequence (looked up): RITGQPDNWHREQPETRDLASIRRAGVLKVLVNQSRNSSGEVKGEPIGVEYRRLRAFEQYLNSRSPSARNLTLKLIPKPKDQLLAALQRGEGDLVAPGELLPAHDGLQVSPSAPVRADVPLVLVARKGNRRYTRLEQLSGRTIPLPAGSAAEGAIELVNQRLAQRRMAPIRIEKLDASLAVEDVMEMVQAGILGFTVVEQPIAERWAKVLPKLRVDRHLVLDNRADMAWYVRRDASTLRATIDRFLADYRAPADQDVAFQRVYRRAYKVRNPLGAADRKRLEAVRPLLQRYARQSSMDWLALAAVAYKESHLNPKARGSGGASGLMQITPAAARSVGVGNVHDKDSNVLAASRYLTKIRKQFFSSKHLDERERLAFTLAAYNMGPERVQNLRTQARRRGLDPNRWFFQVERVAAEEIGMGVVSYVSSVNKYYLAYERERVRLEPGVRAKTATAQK
The description is as above.

For a further assay, the target named is T5, PA2854 (P. aeruginosa PAO1, UniProt Q9HZZ0).
T5 construct: source: E. coli, purified (Ni-NTA or Strep-Tactin)
T5 sequence: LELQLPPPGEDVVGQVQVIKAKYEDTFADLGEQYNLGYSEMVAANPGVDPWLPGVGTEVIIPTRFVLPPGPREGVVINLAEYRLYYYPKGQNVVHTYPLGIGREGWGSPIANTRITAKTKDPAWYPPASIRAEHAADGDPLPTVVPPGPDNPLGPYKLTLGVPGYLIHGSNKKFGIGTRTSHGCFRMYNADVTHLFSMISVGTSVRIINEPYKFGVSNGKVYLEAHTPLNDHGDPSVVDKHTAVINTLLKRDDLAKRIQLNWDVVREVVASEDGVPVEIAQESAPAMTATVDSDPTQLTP
Nature of the assay: SPR. For orientation: In SPR one partner is held on a chip, and binding of the other changes the refractive index at the surface.

The next assay has as its target T6, PilO (P. aeruginosa PAO1, UniProt G3XD51).
T6 construct: source: E. coli, purified (Ni-NTA or Strep-Tactin)
T6 sequence: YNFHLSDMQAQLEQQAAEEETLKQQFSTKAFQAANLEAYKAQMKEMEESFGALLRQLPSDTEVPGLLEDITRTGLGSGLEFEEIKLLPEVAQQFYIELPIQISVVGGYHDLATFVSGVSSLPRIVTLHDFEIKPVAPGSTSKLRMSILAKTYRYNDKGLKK
The experiment in a line: SPR.

Another assay concerns the target T7, SltB1 (P. aeruginosa PAO1, UniProt Q9HX24 1-340).
T7 sequence (looked up): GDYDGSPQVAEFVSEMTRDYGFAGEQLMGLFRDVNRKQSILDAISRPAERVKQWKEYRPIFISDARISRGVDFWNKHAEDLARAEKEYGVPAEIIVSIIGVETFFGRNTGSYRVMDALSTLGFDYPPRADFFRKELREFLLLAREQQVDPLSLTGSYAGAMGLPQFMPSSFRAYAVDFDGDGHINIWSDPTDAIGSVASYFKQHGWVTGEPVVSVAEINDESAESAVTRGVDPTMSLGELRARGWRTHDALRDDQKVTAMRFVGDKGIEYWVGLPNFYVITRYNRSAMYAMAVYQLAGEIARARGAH
Nature of the assay: ITC. For orientation: Isothermal titration calorimetry measures the heat released or taken up as one component is titrated into another.

For assay [5], the target named is T2, PBP1a. The experiment in a line: ITC.
The next assay concerns the target T8, PilA (P. aeruginosa PAO1, UniProt P04739).
T8 construct: source: E. coli, purified (Ni-NTA or Strep-Tactin)
T8 sequence: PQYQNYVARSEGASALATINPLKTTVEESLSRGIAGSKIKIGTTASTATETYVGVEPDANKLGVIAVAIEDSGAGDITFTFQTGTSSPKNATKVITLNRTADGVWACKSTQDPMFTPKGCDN
Nature of the assay: ITC.

Another assay deals with T9, SltB2 (P. aeruginosa PAO1, UniProt Q9I4G6 1-398).
T9 sequence (looked up): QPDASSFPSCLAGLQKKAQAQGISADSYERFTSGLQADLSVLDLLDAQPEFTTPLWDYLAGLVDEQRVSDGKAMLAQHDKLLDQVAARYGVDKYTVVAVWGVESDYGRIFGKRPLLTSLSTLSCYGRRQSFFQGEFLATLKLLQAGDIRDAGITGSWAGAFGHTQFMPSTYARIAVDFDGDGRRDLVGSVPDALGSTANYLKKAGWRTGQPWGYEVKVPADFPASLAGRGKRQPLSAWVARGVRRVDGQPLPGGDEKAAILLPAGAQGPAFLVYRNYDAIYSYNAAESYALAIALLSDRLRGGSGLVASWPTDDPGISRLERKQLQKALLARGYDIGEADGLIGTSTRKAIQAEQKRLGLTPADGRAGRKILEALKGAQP
Nature of the assay: SPR.

The target in the next assay is T10, PBP4 (P. aeruginosa PAO1, UniProt Q9HZG1 1-476).
T10 sequence (looked up): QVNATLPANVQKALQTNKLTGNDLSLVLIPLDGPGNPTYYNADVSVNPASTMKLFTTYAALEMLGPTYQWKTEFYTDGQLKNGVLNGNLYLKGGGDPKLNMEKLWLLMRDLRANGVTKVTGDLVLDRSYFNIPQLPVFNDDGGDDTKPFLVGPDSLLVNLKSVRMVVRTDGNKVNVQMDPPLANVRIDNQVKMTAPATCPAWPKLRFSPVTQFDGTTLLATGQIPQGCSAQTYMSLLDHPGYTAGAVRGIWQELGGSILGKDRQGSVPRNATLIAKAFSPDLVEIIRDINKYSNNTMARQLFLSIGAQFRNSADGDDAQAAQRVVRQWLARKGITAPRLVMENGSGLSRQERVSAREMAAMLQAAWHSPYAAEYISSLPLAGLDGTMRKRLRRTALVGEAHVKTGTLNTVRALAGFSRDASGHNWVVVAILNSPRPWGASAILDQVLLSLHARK
The experiment in a line: SPR.

Another assay deals with MltF (P. aeruginosa PAO1, UniProt Q9HXN1 33-490). The experiment in a line: SPR.
Chain of MltF (Q9HXN1 33-490): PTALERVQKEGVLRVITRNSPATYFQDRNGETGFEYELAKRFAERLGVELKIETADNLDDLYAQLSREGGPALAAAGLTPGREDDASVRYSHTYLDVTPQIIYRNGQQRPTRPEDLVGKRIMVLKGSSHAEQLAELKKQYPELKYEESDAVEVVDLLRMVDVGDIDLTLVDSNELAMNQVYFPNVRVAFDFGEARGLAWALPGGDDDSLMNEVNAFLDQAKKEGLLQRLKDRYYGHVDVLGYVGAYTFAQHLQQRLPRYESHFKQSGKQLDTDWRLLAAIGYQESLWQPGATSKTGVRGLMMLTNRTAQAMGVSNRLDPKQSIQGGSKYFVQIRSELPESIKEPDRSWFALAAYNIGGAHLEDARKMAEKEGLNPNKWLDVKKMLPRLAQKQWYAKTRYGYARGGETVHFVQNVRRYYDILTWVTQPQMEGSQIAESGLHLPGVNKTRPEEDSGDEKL
Assay [6] has as its target T1, MltD. Nature of the assay: SPR.
Another assay deals with T11, MltB (P. aeruginosa PAO1, UniProt Q9HVX3 1-367).
T11 sequence (looked up): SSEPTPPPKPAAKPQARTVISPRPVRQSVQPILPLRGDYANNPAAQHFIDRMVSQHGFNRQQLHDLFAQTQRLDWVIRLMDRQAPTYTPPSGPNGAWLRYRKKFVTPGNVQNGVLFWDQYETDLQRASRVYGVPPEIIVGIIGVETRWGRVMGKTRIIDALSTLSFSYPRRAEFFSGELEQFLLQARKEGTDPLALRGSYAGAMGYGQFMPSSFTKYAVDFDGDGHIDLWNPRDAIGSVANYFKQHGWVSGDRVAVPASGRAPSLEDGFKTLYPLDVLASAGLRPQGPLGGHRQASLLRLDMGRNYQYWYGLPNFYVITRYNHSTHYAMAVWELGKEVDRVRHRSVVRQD
Nature of the assay: SPR.

The target of assay [7] is T2, PBP1a. The experiment in a line: SPR.
Assay [8] concerns the target T3, TypA. Nature of the assay: SPR.
Assay [9] has as its target T4, MltF2. Nature of the assay: SPR.

This is an account of results in PMC9712689 (Communications Biology, 2022).

B1: RlpA-SPOR (domain or fragment, P. aeruginosa PAO1, UniProt Q9X6V6 264-342, looked up)
chain: ADGLYLQVGAFANPDAAELLKAKLSGVTAAPVFISSVVRNQQILHRVRLGPIGSADEVSRTQDSIRVANLGQPTLVRPD
One may read the Kd as the concentration at which binding is half-saturated. The low end stands for tighter binding, the high end for weaker binding. One may read the koff as the rate constant with which the complex falls apart. A lower koff goes with slow dissociation. By kon is commonly meant a measure of how fast the partners come together. High values mean fast association, low ones slow association. Usually stoichiometry N stands for the number of molecules, sites or subunits per partner or assembly. For B1, the Kd with MltD [1] turned out to be 200 nM; with PBP1a [2], 190 nM; with TypA [3] it was 4250 nM; with MltF2 [4], 98 nM; in the assay with PA2854, 1410 nM; with PilO it was 5760 nM. Further, the Kd with SltB1 came to 9800 nM; with PBP1a [5], 104 nM; with PilA it was 73 nM. Besides, the koff in the assay with MltD [1] was found to be 0.0027 s⁻¹; in the assay with PBP1a [2] it was 0.00049 s⁻¹; with TypA [3] it was 0.00034 s⁻¹; with MltF2 [4] it was 0.00077 s⁻¹; with PA2854, 0.00038 s⁻¹; with PilO, 0.00438 s⁻¹. For the same molecule, the kon came out at 13800 M⁻¹ s⁻¹ in the assay with MltD [1]; 2600 M⁻¹ s⁻¹ with PBP1a [2]; 80 M⁻¹ s⁻¹ with TypA [3]; 7900 M⁻¹ s⁻¹ in the assay with MltF2 [4]; 270 M⁻¹ s⁻¹ in the assay with PA2854; 760 M⁻¹ s⁻¹ with PilO. Moreover, the “stoichiometry N” value with PBP1a [5] is 0.26; in the assay with PilA, 1.

B2: RlpA-Δ32 (domain or fragment)
chain: PQQPARQAGISGPGDYSRPHRDGAPWWDVDVSRIPDAVPMPHNGSVKANPYTVLGKTYYPMNDARAYRMVGTASWYGTKFHGQATANGETYDLYGMTAAHKTLPLPSYVRVTNLDNGKSVIVRVNDRGPFYSDRVIDLSFAAAKKLGYAETGTARVKVEGIDPVQWWAQRGRPAPMVLAQPKQAVAQAAPAAAQTQAVAMAQPIETYTPPPAQHAAAVLPVQIDSKKNASLPADGLYLQVGAFANPDAAELLKAKLSGVTAAPVFISSVVRNQQILHRVRLGPIGSADEVSRTQDSIRVANLGQPTLVRPD
notes: source: E. coli BL21-star (DE3), purified (Ni-NTA)
As for B2, the Kd in the assay with SltB2 turned out to be 1040 nM; with PBP4, 130 nM; in the assay with MltD [6], 430 nM; in the assay with MltB, 620 nM; in the assay with PBP1a [7], 340 nM; with TypA [8], 2020 nM. The Kd with MltF2 [9] stood at 6 nM. In addition, the koff came out at 0.0005 s⁻¹ with SltB2; 0.00086 s⁻¹ in the assay with PBP4; 0.00116 s⁻¹ in the assay with MltD [6]; 0.00079 s⁻¹ in the assay with MltB; 0.00144 s⁻¹ in the assay with PBP1a [7]; 0.00077 s⁻¹ with TypA [8]. Further, the off-rate constant (koff) with MltF2 [9] came to 0.00028 s⁻¹. Moreover, the kon stood at 480 M⁻¹ s⁻¹ in the assay with SltB2; 6700 M⁻¹ s⁻¹ with PBP4; 500 M⁻¹ s⁻¹ with MltF; 2700 M⁻¹ s⁻¹ with MltD [6]; 1270 M⁻¹ s⁻¹ in the assay with MltB; 4200 M⁻¹ s⁻¹ in the assay with PBP1a [7]. Moreover, the kon with TypA [8] was found to be 380 M⁻¹ s⁻¹; with MltF2 [9], 44000 M⁻¹ s⁻¹.
